In paper doi:10.1101/2025.03.18.644018v1 one finds K0.5 and kcat data, which are given here for 3 proteins.

Substrate in data set [1]: O=C(O)C[C@H](O)C(=O)O
The data set can be described thus: purified protein. The note with it: equimolar mixture, forward, saturating NAD, MnCl2, pH 6.5, 30°C.

Substrate in data set [2]: CC(=O)C(=O)O
The data set can be described thus: purified protein. In kind it is biochemical, Glycine max. The following applies: reverse reaction, NaHCO3, NADPH, MgCl2, pH 6.5, 30°C.

B1: NAD-ME1 + NAD-ME2.3 (Glycine max) (protein)
chain 1: PSIVHKRSLDILHDPWFNKGTAFSMTERDRLDLRGLLPPNVMSPDLQIERFMVDLKRLEVQARDGPSDPNALAKWRILNRLHDRNETMYYKVLIAKIEEYAPIVYTPTVGLVCQNYSGLFRRPRGMYFSAEDRGEMMSMVYNWPAEQVDMIVVTDGSRILGLGDLGVQGIGIAIGKLDLYVAAAGINPQRVLPVMIDVGTNNEKLLEDPLYLGLQQHRLDGDDYLAVVDEFMEAVFTRWPNVIVQFEDFQSKWAFKLLQRYRNTYRMFNDDVQGTAGVAIAGLLGAVRAQGRPLIDFPKQKIVVAGAGSAGIGVLNAARKTMARMLGNNEVAFESAKSQFWVVDAQGLITEGRENIDPDALPFARNLKEMDRQGLREGASLVEVVKQVKPDVLLGLSAVGGLFSKEVLEALKGSTSTRPAIFAMSNPTKNAECTAEEAFSILGDNIIFASGSPFSNVDLGNGHIGHCNQGNNMYLFPGIGLGTLLSGARIVSDGMLQAAAERLATYMSEEEVLKGIIFPSTSRIRDITKQVATAVIKEAVEEDLAEGYHGMDARELQKLSEDEIAEYVQNNMWSPEYPTLVYKKE
chain 2: CIVHKRGADILHDPWFNKDTGFPLTERDRLGLRGLLPPRVISFEQQYDRFMNSFRSLENNTQGQPDKVVSLAKWRILNRLHDRNETLYYRVLIDNIKEFAPIIYTPTVGLVCQNYSGLFRRPRGMYFSAKDKGEMMSMIYNWPAHEVDMIVLTDGSRILGLGDLGVQGIGIPIGKLDVYVAAAGINPQRILPVMLDVGTNNQKLLEDRLYLGLRQPRLEGEEYLSIVDEFMEAVHARWPKAIVQFEDFQMKWAFETLKRYQKRFCMFNDDIQGTAGVALAGILGTVRAQGRPLTDFVNQKIVVVGAGSAGLGVLKMAIQTVAKISGCSELAAKSQFYLIDKDGLVTTERNSLDPAAAPFAKNPRDIEGLTEGASIIEVVKKIRPHVLLGLSGVGGIFNEEVLKAMRESVSTKPAIFAMSNPTMNAECTSIDAFKHAGENIVFASGSPFENVDLGNGKVGHVNQANNMYLFPGIGLGTLLSGAHLITDGMLQAASECLASYMAEEDILKGILYPSVDSIRDVTAEVGAAVLRAAVEEELAEGHGDVGPKELSHMSKDEAVEYVRSNMWYPVYSPLVHEK
As for B1, in data set [1], the K0.5 was determined as 0.2 ± 0.1 mM and the kcat was found to be 338.3 ± 15.8 s⁻¹.

B2: NAD-ME1 + NAD-ME2.4 (Glycine max) (protein)
chain 1: B1 chain 1
chain 2: CIVHKRGADILHDPWFNKDTGFPLTERDRLGLRGLLPPRVISFEQQYDRFMNSFRSLENNTQGQPDKVVSLAKWRILNRLHDRNETLYYRVLIDNIKEFAPIIYTPTVGLVCQNYSGLFRRPRGMYFSAKDKGEMMSMIYNWPAHEVDMIVLTDGSRILGLGDLGVQGIGIPIGKLDVYVAAAGINPQRILPVMLDVGTNNQKLLEDRLYLGLRQPRLEGEEYLSIIDEFMEAVHARWPKAIVQFEDFQMKWAFETLKRYQKKFCMFNDDIQGTAGVALAGLLGTVRAQGRPLTDFVNQKIVVVGAGSAGLGVLKMAIQAVAKISGCSELAAKSQFYLIDKDGLVTTERNNLDPAAAPFAKNPRDIEGLTEGASIIEVVKKIRPHVLLGLSGVGGIFNEEVLKAMRESVSTKPAIFAMSNPTMNAECTAIDAFKHAGENMVFASGSPFENVDLGNGIVGHVNQANNMYLFPGIGLGTLLSGAHLITDGMLQAAAECLASYMAEEDILKGILYPSVDSIRDVTAEVGAAVLRAAVEEELAEGNGDVGPKELSHMSKDETVEYVRSNMWYPVYSPLVHEK
Take B2: in data set [1], the K0.5 was found to be 0.6 ± 0.2 mM and the kcat stood at 393.6 ± 63.8 s⁻¹.

B3: NADP-ME1.1 (Glycine max) (protein)
chain: SMTPSSSSSSRSGDRNGSVVMETPLKELKKESTVADVDDNAISAGGPQDVYGEDRATEDHFVTPWSVSVASGYTLLRDPHFNKGLAFTEDERDAHYLRGLLPPSVIPQETQVKKMIQHVRQYQVPLQKYMAMMDLQERNERLFYKLLIDHVEELLPVVYTPTVGEACQKYGSIFMHPQGLYISLKEKGKIREVLRNWPEKNIQVIVVTDGERILGLGDLGCQGMGIPVGKLSLYTALGGVRPSACLPITIDVGTNNEKLLNDELYIGLKQRRATGQEYAELMHEFMTAVKQTYGEKVLIQFEDFANHNAFNLLEKYRSTHLVFNDDIQGTASVVLAGLVASLKLVGGNLADHRFLFLGAGEAGTGIAELIALETSKQTNAPLEEVRKNIWLVDSKGLIVSSRKDSLQHFKKPWAHEHEPVKNLLDAVNKIKPTVLIGTSGQGRTFTKEVIEAMASINKRPIILSLSNPTSQSECTAEEAYKWSQGRAIFASGSPFPPVEYEGKVFVPGQANNAYIFPGFGLGLIMSGTIRVHDDLLLAASEALAAQVSQENFDKGLIYPPFTNIRKISAHIAANVAAKAYELGLATRLPQPKDLVKFAESCMYTPAYRSYR
On to B3, for which, in data set [2], the K0.5 worked out at 5.1 ± 0.5 mM and the kcat is 202.4 ± 6.9 s⁻¹.
